Here are results for 5 molecules from patent US20250018052A1 (CHIA TAI TIANQING PHARMACEUTICAL GROUP, published 2025).

First the molecules themselves.
B1: Patritumab-eribulin-D2 (antibody, human IgG1, kappa, V domains shown)
VH: QVQLQQWGAGLLKPSETLSLTCAVYGGSFSGYYWSWIRQPPGKGLEWIGEINHSGSTNYNPSLKSRVTISVETSKNQFSLKLSSVTAADTAVYYCARDKWTWYFDLWGRGTLVTVSS
VL: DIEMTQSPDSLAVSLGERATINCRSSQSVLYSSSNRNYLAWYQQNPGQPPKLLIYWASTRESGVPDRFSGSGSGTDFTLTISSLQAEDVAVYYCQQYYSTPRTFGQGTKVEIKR
modifications: MC-GGFG-eribulin (compound III-1) conjugated to cysteine sulfhydryls freed by TCEP reduction of the antibody's disulfide bonds; positions not given; average DAR 2.6 per antibody
notes: also called patritumab-eribulin conjugate with a DAR of 2.6
B2: Patritumab-eribulin-D4 (antibody, human IgG1, kappa, V domains shown)
VH: B1 VH
VL: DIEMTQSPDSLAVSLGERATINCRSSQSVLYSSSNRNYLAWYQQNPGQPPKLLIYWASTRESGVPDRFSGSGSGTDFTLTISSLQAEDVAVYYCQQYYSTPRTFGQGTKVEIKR
modifications: MC-GGFG-eribulin (compound III-1) conjugated to cysteine sulfhydryls freed by TCEP reduction of the antibody's disulfide bonds; positions not given; average DAR 4.0-4.2 per antibody
notes: also called patritumab-eribulin conjugate with DAR of 4.0-4.2
B3: Patritumab-eribulin-D8 (antibody, human IgG1, kappa, V domains shown)
VH: B1 VH
VL: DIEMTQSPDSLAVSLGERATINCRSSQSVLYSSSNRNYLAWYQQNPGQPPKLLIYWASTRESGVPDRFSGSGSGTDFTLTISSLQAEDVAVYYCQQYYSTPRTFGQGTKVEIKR
modifications: MC-GGFG-eribulin (compound III-1) conjugated to cysteine sulfhydryls freed by TCEP reduction of the antibody's disulfide bonds; positions not given; average DAR 7.6 per antibody
notes: also called patritumab-eribulin conjugate with a DAR of 7.6
B4: Patritumab (antibody, human IgG1, kappa, V domains shown)
VH: B1 VH
VL: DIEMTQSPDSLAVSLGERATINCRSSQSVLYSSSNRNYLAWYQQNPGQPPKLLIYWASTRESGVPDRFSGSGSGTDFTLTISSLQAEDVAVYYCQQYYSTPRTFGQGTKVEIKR
notes: Naked antibody expressed in Expi-CHO cells and purified by Protein A; also called fully human anti-HER3 monoclonal antibody
B5: Patritumab-DDDXd-D8 (antibody, human IgG1, kappa, V domains shown)
VH: B1 VH
VL: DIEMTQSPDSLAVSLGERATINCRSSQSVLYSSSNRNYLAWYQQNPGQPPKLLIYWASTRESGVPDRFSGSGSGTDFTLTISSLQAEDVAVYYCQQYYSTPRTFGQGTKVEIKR
modifications: MC-GGFG-DDDXd (deuterated MC-GGFG-DXd) conjugated to cysteine sulfhydryls freed by TCEP reduction of the antibody's disulfide bonds; positions not given; average DAR 7.9 per antibody
notes: also called patritumab-DDDXd conjugate with a DAR of 7.9; patritumab-DDDX-D8

In one test the target is T1, HER3 (human epidermal growth factor receptor 3) (human, UniProt P21860 20-1342).
T1 construct: whole, on cells; no recombinant HER3 was used; also called ErbB3; ErbB-3
Nature of the test: FACS (MFI) on MCF-7 cells, high HER3 expression; anti-human IgG-Fc-PE secondary. How it is done: (§1) The cells were incubated at 4° C. for 60 min and centrifuged at 1000 rpm for 5 min. […] The cells were washed 3 times with pre-cooled PBS (pH 7.4) and resuspended in 100 μL of PBS (pH 7.4), and then the fluorescence signals were analyzed and detected using a flow cytometer (Sartorius, iQUE). […] Data were analyzed using GraphPad Prism5.
With B1, the EC50 is 0.855 nM.
B2 came in with an EC50 of 0.932 nM.
For the molecule B3, the EC50 was found to be 1.02 nM. The EC50 values of the last two molecules are within 1.5-fold of each other.
Still for that read-out and setting: next, B4: 0.807 nM.
With B5, the EC50 amounted to 0.77 nM. The EC50 values of the last two molecules are within 1.5-fold of each other.

For the next test, the target named is T1, HER3 (human epidermal growth factor …). The experiment in a line: cell-based or functional assay.
Regarding B1, the “Endocytosis EC50 (nM), BT474 cells, pHrodo Green-labelled anti-human IgG Fc, FACS” value (shortened to “Endocytosis EC50 (nM), BT474 cells”) came to 1.07 nM; the “Endocytosis EC50 (nM), MCF-7 cells, pHrodo Green-labelled anti-human IgG Fc, FACS” value (from here on “Endocytosis EC50 (nM), MCF-7 cells”) worked out at 0.58 nM; the “Endocytosis EC50 (nM), NCI-N87 cells, pHrodo Green-labelled anti-human IgG Fc, FACS” value (“Endocytosis EC50 (nM), NCI-N87 cells” for short) was 4.5 nM.
As to B2, the “Endocytosis EC50 (nM), BT474 cells” value amounted to 0.962 nM; the “Endocytosis EC50 (nM), MCF-7 cells” value was determined as 0.797 nM; the “Endocytosis EC50 (nM), NCI-N87 cells” value came out at 4.72 nM.
In the same order, the values of B3 are 0.931 nM, 1.25 nM and 9.46 nM.
Take B4: the “Endocytosis EC50 (nM), BT474 cells” value was 0.821 nM and the “Endocytosis EC50 (nM), MCF-7 cells” value was determined as 0.509 nM.
For B5, the “Endocytosis EC50 (nM), BT474 cells” value stood at 0.859 nM; the “Endocytosis EC50 (nM), MCF-7 cells” value worked out at 0.869 nM; the “Endocytosis EC50 (nM), NCI-N87 cells” value amounted to 56.8 nM.

Another test shares this target. The experiment in a line: FACS (MFI) on JIMT-1 cells, medium HER3 expression; anti-human IgG-Fc-PE secondary. How it is done:
as §1
As for B1, the EC50 was 1.59 nM.
The molecule B2 yielded an EC50 of 1.04 nM.
Consider B3, for which the EC50 amounted to 1.73 nM.
Take B4: the EC50 was 1.51 nM.
On to B5, for which the EC50 stood at 1.3 nM.

A further test shares this target. Nature of the test: FACS (MFI) on HCC1569 cells, high HER3 expression; anti-human IgG-Fc-PE secondary. How it is done:
as §1
B1 registered an EC50 of 1.42 nM. In other words, the single-digit nanomolar range.
For B2, the midpoint of the response, the EC50, lay at 1.49 nM. This EC50 and that of the molecule before are within 1.5-fold of each other.
The molecule B3 came in with an EC50 of 1.49 nM. That is a single-digit nanomolar value.
For the molecule B5, the EC50 was determined as 1.16 nM.

For a further test the target is unchanged. The experiment in a line: FACS (MFI) on MDA-MB-468 cells, medium HER3 expression; anti-human IgG-Fc-PE secondary. How it is done: as §1
Regarding B1, it took 1.56 nM to reach a half-maximal effect (EC50).
On the same count and under the same terms, next, B2: 1.67 nM.
For B3, the EC50 was 3.31 nM. This EC50 lies about 2-fold higher than the previous one.
B4 registered an EC50 of 1.3 nM.
Molecule B5 showed an EC50 of 1.7 nM.

The target is the same in a further test. Nature of the test: FACS (MFI) on BT474 cells, high HER3 expression; anti-human IgG-Fc-PE secondary. How it is done: as §1
In turn, B1 had an EC50 of 3.05 nM.
B2 showed an EC50 of 2.78 nM.
Molecule B3 yielded an EC50 of 2.85 nM.
B4: the midpoint of the response, the EC50, lay at 3.02 nM.
On the same count and under the same terms, next, B5: 2.68 nM.

Another test has the same target. The experiment in a line: FACS (MFI) on SW620 cells, low HER3 expression; anti-human IgG-Fc-PE secondary. How it is done:
as §1
B1 had an EC50 of 1.89 nM.
Still for that read-out and setting: in the case of B2 it was 1.28 nM.
On to B3, for which the EC50 is 1.74 nM.
Still for that read-out and setting: in the case of B4 it was 1.47 nM.
B5 had an EC50 of 1.37 nM.
